Measurements: patent US20210388087A1

Key:
Human CD137 ECD (human) = experiment: Biacore SPR, vs parent H183/L072
[1] = target: Human CD3eg linker (human); experiment: SPR; fold vs parent H183/L072
[2] = target: Human CD3eg linker (human); experiment: affinity relative to template H183/L072, single-mutation scan

Chain of Human CD3eg linker (human) (chain, as listed by the source limits assumed): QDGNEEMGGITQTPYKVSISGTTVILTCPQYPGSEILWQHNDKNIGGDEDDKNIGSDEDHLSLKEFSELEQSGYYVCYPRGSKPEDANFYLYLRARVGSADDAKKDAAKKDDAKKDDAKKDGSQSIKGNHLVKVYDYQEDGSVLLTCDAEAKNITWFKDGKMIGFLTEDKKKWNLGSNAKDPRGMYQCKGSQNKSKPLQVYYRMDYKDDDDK
Chain of Human CD137 ECD (human) (chain, as listed by the source limits assumed): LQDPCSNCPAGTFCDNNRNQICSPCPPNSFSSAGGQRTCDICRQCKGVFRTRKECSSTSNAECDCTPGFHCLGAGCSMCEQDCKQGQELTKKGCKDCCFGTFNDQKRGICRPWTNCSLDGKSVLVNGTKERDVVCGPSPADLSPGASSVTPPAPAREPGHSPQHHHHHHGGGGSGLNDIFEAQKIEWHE

| Binder | fold change of affinity (Human CD137 ECD (human)) [fold] | fold change of affinity [1] [fold] | fold change of affinity for CD3 [2] [fold] |
| --- | --- | --- | --- |
| H183/L072 VL H34K (antibody, name in Kabat numbering, V domains shown) VH: QVQLVESGGGLVQPGRSLRLSCAASGFTFSNAWMHWVRQAPGKGLEWVAQIKDKGNAYAAYYAPSVKGRFTISRDDSKNSIYLQMNSLKTEDTAVYYCHYVHYASASTVLPAFGVDAWGQGTTVTVSS VL: DIVMTQSPLSLPVTPGEPASISCQASQELVHMNRNTYLKWYQQKPGQAPRLLIYKVSNRFPGVPDRFSGSGSGTDFTLKISRVEAEDVGVYYCAQGTSVPFTFGQGTKLEIK | 0 |  |  |
| H183/L072 VL L27bR (antibody, name in Kabat numbering, V domains shown) VH: QVQLVESGGGLVQPGRSLRLSCAASGFTFSNAWMHWVRQAPGKGLEWVAQIKDKGNAYAAYYAPSVKGRFTISRDDSKNSIYLQMNSLKTEDTAVYYCHYVHYASASTVLPAFGVDAWGQGTTVTVSS VL: DIVMTQSPLSLPVTPGEPASISCQASQERVHMNRNTYLHWYQQKPGQAPRLLIYKVSNRFPGVPDRFSGSGSGTDFTLKISRVEAEDVGVYYCAQGTSVPFTFGQGTKLEIK | 0 | 0 |  |
| H183/L072 VL A25R (antibody, name in Kabat numbering, V domains shown) VH: QVQLVESGGGLVQPGRSLRLSCAASGFTFSNAWMHWVRQAPGKGLEWVAQIKDKGNAYAAYYAPSVKGRFTISRDDSKNSIYLQMNSLKTEDTAVYYCHYVHYASASTVLPAFGVDAWGQGTTVTVSS VL: DIVMTQSPLSLPVTPGEPASISCQRSQELVHMNRNTYLHWYQQKPGQAPRLLIYKVSNRFPGVPDRFSGSGSGTDFTLKISRVEAEDVGVYYCAQGTSVPFTFGQGTKLEIK | 0 |  |  |
| H183/L072 VL A25W (antibody, name in Kabat numbering, V domains shown) VH: QVQLVESGGGLVQPGRSLRLSCAASGFTFSNAWMHWVRQAPGKGLEWVAQIKDKGNAYAAYYAPSVKGRFTISRDDSKNSIYLQMNSLKTEDTAVYYCHYVHYASASTVLPAFGVDAWGQGTTVTVSS VL: DIVMTQSPLSLPVTPGEPASISCQWSQELVHMNRNTYLHWYQQKPGQAPRLLIYKVSNRFPGVPDRFSGSGSGTDFTLKISRVEAEDVGVYYCAQGTSVPFTFGQGTKLEIK | 0 | 0 |  |
| H183/L072 VL H34R (antibody, name in Kabat numbering, V domains shown) VH: QVQLVESGGGLVQPGRSLRLSCAASGFTFSNAWMHWVRQAPGKGLEWVAQIKDKGNAYAAYYAPSVKGRFTISRDDSKNSIYLQMNSLKTEDTAVYYCHYVHYASASTVLPAFGVDAWGQGTTVTVSS VL: DIVMTQSPLSLPVTPGEPASISCQASQELVHMNRNTYLRWYQQKPGQAPRLLIYKVSNRFPGVPDRFSGSGSGTDFTLKISRVEAEDVGVYYCAQGTSVPFTFGQGTKLEIK | 0 | 0 |  |
| H183/L072 VL H34F (antibody, name in Kabat numbering, V domains shown) VH: QVQLVESGGGLVQPGRSLRLSCAASGFTFSNAWMHWVRQAPGKGLEWVAQIKDKGNAYAAYYAPSVKGRFTISRDDSKNSIYLQMNSLKTEDTAVYYCHYVHYASASTVLPAFGVDAWGQGTTVTVSS VL: DIVMTQSPLSLPVTPGEPASISCQASQELVHMNRNTYLFWYQQKPGQAPRLLIYKVSNRFPGVPDRFSGSGSGTDFTLKISRVEAEDVGVYYCAQGTSVPFTFGQGTKLEIK | 0 | 0 |  |
| H183/L072 VL A25F (antibody, name in Kabat numbering, V domains shown) VH: QVQLVESGGGLVQPGRSLRLSCAASGFTFSNAWMHWVRQAPGKGLEWVAQIKDKGNAYAAYYAPSVKGRFTISRDDSKNSIYLQMNSLKTEDTAVYYCHYVHYASASTVLPAFGVDAWGQGTTVTVSS VL: DIVMTQSPLSLPVTPGEPASISCQFSQELVHMNRNTYLHWYQQKPGQAPRLLIYKVSNRFPGVPDRFSGSGSGTDFTLKISRVEAEDVGVYYCAQGTSVPFTFGQGTKLEIK | 0 | 0 |  |
| H183/L072 VL H34W (antibody, name in Kabat numbering, V domains shown) VH: QVQLVESGGGLVQPGRSLRLSCAASGFTFSNAWMHWVRQAPGKGLEWVAQIKDKGNAYAAYYAPSVKGRFTISRDDSKNSIYLQMNSLKTEDTAVYYCHYVHYASASTVLPAFGVDAWGQGTTVTVSS VL: DIVMTQSPLSLPVTPGEPASISCQASQELVHMNRNTYLWWYQQKPGQAPRLLIYKVSNRFPGVPDRFSGSGSGTDFTLKISRVEAEDVGVYYCAQGTSVPFTFGQGTKLEIK | 0 | 0 |  |
| H183/L072 VL L27bY (antibody, name in Kabat numbering, V domains shown) VH: QVQLVESGGGLVQPGRSLRLSCAASGFTFSNAWMHWVRQAPGKGLEWVAQIKDKGNAYAAYYAPSVKGRFTISRDDSKNSIYLQMNSLKTEDTAVYYCHYVHYASASTVLPAFGVDAWGQGTTVTVSS VL: DIVMTQSPLSLPVTPGEPASISCQASQEYVHMNRNTYLHWYQQKPGQAPRLLIYKVSNRFPGVPDRFSGSGSGTDFTLKISRVEAEDVGVYYCAQGTSVPFTFGQGTKLEIK | 0 | 0 |  |
| H183/L072 VL A25Y (antibody, name in Kabat numbering, V domains shown) VH: QVQLVESGGGLVQPGRSLRLSCAASGFTFSNAWMHWVRQAPGKGLEWVAQIKDKGNAYAAYYAPSVKGRFTISRDDSKNSIYLQMNSLKTEDTAVYYCHYVHYASASTVLPAFGVDAWGQGTTVTVSS VL: DIVMTQSPLSLPVTPGEPASISCQYSQELVHMNRNTYLHWYQQKPGQAPRLLIYKVSNRFPGVPDRFSGSGSGTDFTLKISRVEAEDVGVYYCAQGTSVPFTFGQGTKLEIK | 0 | 0 |  |
| H183/L072 VL H34A (antibody, name in Kabat numbering, V domains shown) VH: QVQLVESGGGLVQPGRSLRLSCAASGFTFSNAWMHWVRQAPGKGLEWVAQIKDKGNAYAAYYAPSVKGRFTISRDDSKNSIYLQMNSLKTEDTAVYYCHYVHYASASTVLPAFGVDAWGQGTTVTVSS VL: DIVMTQSPLSLPVTPGEPASISCQASQELVHMNRNTYLAWYQQKPGQAPRLLIYKVSNRFPGVPDRFSGSGSGTDFTLKISRVEAEDVGVYYCAQGTSVPFTFGQGTKLEIK | 0 |  |  |
| H183/L072 VL F55A (antibody, name in Kabat numbering, V domains shown) VH: QVQLVESGGGLVQPGRSLRLSCAASGFTFSNAWMHWVRQAPGKGLEWVAQIKDKGNAYAAYYAPSVKGRFTISRDDSKNSIYLQMNSLKTEDTAVYYCHYVHYASASTVLPAFGVDAWGQGTTVTVSS VL: DIVMTQSPLSLPVTPGEPASISCQASQELVHMNRNTYLHWYQQKPGQAPRLLIYKVSNRAPGVPDRFSGSGSGTDFTLKISRVEAEDVGVYYCAQGTSVPFTFGQGTKLEIK | 0 |  |  |
| H183/L072 VL H34Y (antibody, name in Kabat numbering, V domains shown) VH: QVQLVESGGGLVQPGRSLRLSCAASGFTFSNAWMHWVRQAPGKGLEWVAQIKDKGNAYAAYYAPSVKGRFTISRDDSKNSIYLQMNSLKTEDTAVYYCHYVHYASASTVLPAFGVDAWGQGTTVTVSS VL: DIVMTQSPLSLPVTPGEPASISCQASQELVHMNRNTYLYWYQQKPGQAPRLLIYKVSNRFPGVPDRFSGSGSGTDFTLKISRVEAEDVGVYYCAQGTSVPFTFGQGTKLEIK | 0 | 0 |  |

Other lines, results leading:

| fold change of affinity (Human CD137 ECD (human)) [fold] | fold change of affinity [1] [fold] | fold change of affinity for CD3 [2] [fold] | Binder |
| --- | --- | --- | --- |
| 0.06 |  |  | H183/L072 VL R54N (antibody, name in Kabat numbering, V domains shown) VH: QVQLVESGGGLVQPGRSLRLSCAASGFTFSNAWMHWVRQAPGKGLEWVAQIKDKGNAYAAYYAPSVKGRFTISRDDSKNSIYLQMNSLKTEDTAVYYCHYVHYASASTVLPAFGVDAWGQGTTVTVSS VL: DIVMTQSPLSLPVTPGEPASISCQASQELVHMNRNTYLHWYQQKPGQAPRLLIYKVSNNFPGVPDRFSGSGSGTDFTLKISRVEAEDVGVYYCAQGTSVPFTFGQGTKLEIK |
|  |  | 0 | H183/L072 with G91Y (Kabat) in VL dBBDu072L (antibody, name in Kabat numbering, V domains shown) VH: QVQLVESGGGLVQPGRSLRLSCAASGFTFSNAWMHWVRQAPGKGLEWVAQIKDKGNAYAAYYAPSVKGRFTISRDDSKNSIYLQMNSLKTEDTAVYYCHYVHYASASTVLPAFGVDAWGQGTTVTVSS VL: DIVMTQSPLSLPVTPGEPASISCQASQELVHMNRNTYLHWYQQKPGQAPRLLIYKVSNRFPGVPDRFSGSGSGTDFTLKISRVEAEDVGVYYCAQYTSVPFTFGQGTKLEIK |
|  |  | 0 | H183/L072 with Q90Y (Kabat) in VL dBBDu072L (antibody, name in Kabat numbering, V domains shown) VH: QVQLVESGGGLVQPGRSLRLSCAASGFTFSNAWMHWVRQAPGKGLEWVAQIKDKGNAYAAYYAPSVKGRFTISRDDSKNSIYLQMNSLKTEDTAVYYCHYVHYASASTVLPAFGVDAWGQGTTVTVSS VL: DIVMTQSPLSLPVTPGEPASISCQASQELVHMNRNTYLHWYQQKPGQAPRLLIYKVSNRFPGVPDRFSGSGSGTDFTLKISRVEAEDVGVYYCAYGTSVPFTFGQGTKLEIK |
|  |  | 0 | H183/L072 with K50Y (Kabat) in VL dBBDu072L (antibody, name in Kabat numbering, V domains shown) VH: QVQLVESGGGLVQPGRSLRLSCAASGFTFSNAWMHWVRQAPGKGLEWVAQIKDKGNAYAAYYAPSVKGRFTISRDDSKNSIYLQMNSLKTEDTAVYYCHYVHYASASTVLPAFGVDAWGQGTTVTVSS VL: DIVMTQSPLSLPVTPGEPASISCQASQELVHMNRNTYLHWYQQKPGQAPRLLIYYVSNRFPGVPDRFSGSGSGTDFTLKISRVEAEDVGVYYCAQGTSVPFTFGQGTKLEIK |
| 0 | 0 |  | H183/L072 VL L33R (antibody, name in Kabat numbering, V domains shown) VH: QVQLVESGGGLVQPGRSLRLSCAASGFTFSNAWMHWVRQAPGKGLEWVAQIKDKGNAYAAYYAPSVKGRFTISRDDSKNSIYLQMNSLKTEDTAVYYCHYVHYASASTVLPAFGVDAWGQGTTVTVSS VL: DIVMTQSPLSLPVTPGEPASISCQASQELVHMNRNTYRHWYQQKPGQAPRLLIYKVSNRFPGVPDRFSGSGSGTDFTLKISRVEAEDVGVYYCAQGTSVPFTFGQGTKLEIK |
| 0 | 0 |  | H183/L072 VL Y32R (antibody, name in Kabat numbering, V domains shown) VH: QVQLVESGGGLVQPGRSLRLSCAASGFTFSNAWMHWVRQAPGKGLEWVAQIKDKGNAYAAYYAPSVKGRFTISRDDSKNSIYLQMNSLKTEDTAVYYCHYVHYASASTVLPAFGVDAWGQGTTVTVSS VL: DIVMTQSPLSLPVTPGEPASISCQASQELVHMNRNTRLHWYQQKPGQAPRLLIYKVSNRFPGVPDRFSGSGSGTDFTLKISRVEAEDVGVYYCAQGTSVPFTFGQGTKLEIK |
|  |  | 0 | H183/L072 with V51Y (Kabat) in VL dBBDu072L (antibody, name in Kabat numbering, V domains shown) VH: QVQLVESGGGLVQPGRSLRLSCAASGFTFSNAWMHWVRQAPGKGLEWVAQIKDKGNAYAAYYAPSVKGRFTISRDDSKNSIYLQMNSLKTEDTAVYYCHYVHYASASTVLPAFGVDAWGQGTTVTVSS VL: DIVMTQSPLSLPVTPGEPASISCQASQELVHMNRNTYLHWYQQKPGQAPRLLIYKYSNRFPGVPDRFSGSGSGTDFTLKISRVEAEDVGVYYCAQGTSVPFTFGQGTKLEIK |
